Reference: the nanobody polyreactivity screen of Harvey et al. (2022)

Test: yeast display, Sf9 membrane polyspecificity reagent, FACS + sequencing; frameworks hold sequencing errors
How it was run: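 Galactose induction of a Saccharomyces cerevisiae BJ5465 synthetic nanobody display library ran 36–48 hours. The cells were then stained for 1 hour at 4 °C with 10% biotinylated, detergent-solubilized Sf9 membrane reagent, pulled down on streptavidin microbeads and FACS-sorted into low and high (top ~1%) gates on expression and reagent-binding fluorescence. Labels for polyreactivity follow the gate of origin.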

Sequence | polyreactivity (PSR sort gate)
QVQLHESPGGLVLAGGSLRLSCAESGYISWSFTMGLYRKAPGKEREFVAGITYGGISYYADSVKGRFTISRDNAIITVYLQMNTLKPEDTAVYYCAAPQTNPYVYVYWGQGTQVTVSS | high polyreactivity
QVQLVESGGGLVQAGGSLRLSCAASGRTFGFYTMGCYRQAPGKERELVAAISWRGGSTYYADSVKGRFTISRDNAKNTVYLQMYSLKPEDTAVYYCAVRTNFGKMYYWGQGTQVTVSS | high polyreactivity
QVQLVESGGGLVQAGGSLRLSCAASGSIFYVYAMGWYRQAPGKERELVAAITSSGTTNYADSVKGRFTISRDNAKNTVYLQMNSLKPEDTAVYYCAADFYYYKKQYDYWGQGTQVTVSS | low polyreactivity
QVQLVESGGGLVQAGGSLRLSCAASGSTFNPYAMGWYRQAPGKERELVATITWRGTSTYYADSVKGRFTISRDNAKNTVYLQMNSLKPEDTPVYYCAARVRYKYDYWGQGTQVTVSS | high polyreactivity
QVQLVESGGGLVQAGGSLRLSCAASGRIFGSYAMGWYRQAPGKERELVAAISWRGTSTYYADSVKGRFTISRDNAKNTVYLQMNSLIPEDTAVYYCAARGLWPYDYWGQGSQVTVSS | low polyreactivity
QVQLVESGGGLVQAGGSLRLTCAASGSTFVWYGMGWYRQAPGKEREFVAAISTSGGRTYYADSVKGRFTISRDNAKNTVYLQMNSLKPEDTAVYYCATRPYFTYRWYDYWGQGTQVTVSS | high polyreactivity
QVQLVQSGGGLVQAGVSLRLSCAASGLIIGVYAMGWYRQAPGKERELVAAITDGGSTYYADSVKGRFTISRDNAKNTVYLQMHSLKPEDTAVYYCNAEFRSSDYDYWGQGTQVTVSS | low polyreactivity
QVQLVESGGGLVQAGGSLRLSCAASGSTFAVYTMGWYRQAPGKERELSTSYADSVKGRFTISRDNAKNTVYLQMNSLKPEDTAVYYCNRDFYEFDSNSYRFDYWGQGTQVTVSS | low polyreactivity
QVQLVESGGGLVQAGGSLRLSCAASGRIFGIYAMGWYRQAPGKERELVAAINSGDSTYADSVKGRFTISRDNAKNTVYLQMNSLKPEDTAVYYCAAEESTSSWSINDYWGQGTQVNVSS | low polyreactivity
QVQLVESGGGLVQAGGSLRLSCAASGRTLTQYAMGWYRQAPGTERELVAAINTSGDSTYYADSVKGRFTISRDNAKNTVYLQMNSLKPEDTAVYYCAADGFWSQLYHLYNGYDYWGQGTQVTVSS | low polyreactivity
QVQLVESGGGLVQAGGSLRLSCAASGRTFVSYAMGWYRQAPGKERELVAAINGNGASTRYADSVKGRFTISRDNAKNTVYLQMNSLKPEDTAVYYCNTGRRFYGYNYWGQGTQVTVSS | high polyreactivity
QVQLVESGGGLVQAGGSLSLSCAASASTFRYYTMGWYRQAPGKERELVAAISWTGGGTYYADSVKGRFTISRDNAKNTVYLQMNSLKPEDTAVYYCAASYYYELFRFDYWGQGTQVTVSS | high polyreactivity
QVQLVESGGGLVQAGGSLRLSCAASGFTFGSYAMGWYRQAPGKEREFVAAISLGGARTYYADSVKGRFTISRDNAKNTVYLQMNSLKPEYTAVYDCAATVRGVGYRYYYWGQGTQVTVSS | high polyreactivity
QVQLVESGGGLVQAGGRLRLGCAASGSTYLYNAMGLYRQAPGKERELVAAISWTGGSTYYADSVKARYTISRDNAKNTVYLQMNSLKPEDTAVYYCNSLSVPDYDYWGHGTQVTVSS | high polyreactivity
QVQLVESGGGLVQAGGSLRLSCAASGSIFGSYALGWYRQAPGKERELVAAISKSGGNTYYADSVKGRFTISRDNAKNTVYLQMNSLKPEDTAVYYCAARYRFLRPKVNYWGQGTQVTVSS | high polyreactivity
QVQLVESGGGLVQAGGSLRLSCAASGSTFPYNVMGWYRPAPGKERELVAAISYSGGNTYYADSVKGRFTISRDNAKNTVYLQMNSLKPEDTAVYYCAKARRGGRGSIKYDYWGQGTQVTVSS | high polyreactivity

Sequence | polyreactivity (PSR sort gate)
QVQLVESGGGLVQPGGSLRLSCAASGRTLHYNVMGWYRQAPGKEREFVAAITKSGGITYYADSVKGRFTISRDNAKNTVYLQMNSLKPEETAVDYCAADSPSWSWRISWSRYDYWGQGTQVTVSS | low polyreactivity
QVQREESGGGLVQAGGSLRLSCAASGRIMNINAMGWYRPATGKERERVAAITWRGGRTFYADSVKGRFTISRDNAKNTVYLQMNSLKAEDTAVYYCAASSNSWYPTGYYWGQGTQVTVSS | high polyreactivity
QVQLVESGGGLVQAGGSLRLSCAASGRILKYYDMGWYRQAPGKETELVAAISVSGTSTYYADSVKGRFTISRDNAKNTVYLQMNSLKPEDTAVYYCATATGRYSFDYWGKGTQVTVSS | low polyreactivity
QVQLVESGGGLVQAGGSLRLSCAASGSTLANYAMGWYRQAPGKERELVAAINSGGSTYYADSVKGRFTISRDNAKNTVYLQMNSLKPEDTAVYYCAAETPNYYGWWEPVWHYYWGQGTQVTVSS | high polyreactivity
QVQLVESGGGLVQAGGSLRLSCAASGNTFSPYGMGWYRQAPGKERELVAGITISDDSTYYADSVKGRFTISRDNAKNTVYLQMNSLKPEDTAVYYCNARYLSWYFKYLYDYWGQGTQVTVSS | low polyreactivity
QVQLVESGGGLVQAGGSLRLSCAASGRTFVFYAMGWYRQAPGKESEFVARITWSGGRTFYADSVKGRFTISRDNAKNTVYLQMNSLKPEDTAVYYCAARGHDAVIATRYDYWGQGTQVTVSS | high polyreactivity
QVQLVESGGGLVQAGGSLRLSCAASGFTFSAYAMGWYRPAPGKERELVAAISWSGSRTYYADSVKGRFTISRDNAKNTVYLQMNSLKQEDTEVYYCAKEPYDTFGFYEYDYWGQGTQVTVSS | low polyreactivity
QVQLVESGGGLVQAGGSLRLSCAASGSTSRHNTMGWYRQPPGKERELVAAISGGGTTYYADSVKGRFTISRDNAKNTVYLQMNSLKPEDTAVYYCAAAFWGDYASSYRSGLDYWGQGTQVTVSS | low polyreactivity
QVQLVESGGGLVQAGGSLRLSCAASGSIFKYYAMGWYRQAPGKERELVAAISTGGTTNYADYVKGRFTISRDNAKNTVYLQMNSLKPEDTAVYYCNRDYLVRSRYKYYYWGQGTQVTVSS | low polyreactivity
QVQLVESGGGLVQAGGSLRLSSAASGRIFKIYPMVWYRQAPGKERELVAAISGRGGSTYYADSVKGRFTISRDNAKNTVYLQMISLKPEDTAVYYCAAVGYGFSAYSTYDYWGQGTQVTVSS | high polyreactivity
QVQLVESGGGLVQAGGSLRLSCAASASIFSVYAMGWYRQAPGKERELVAAITRSGARTYYADSVKGRFTISRDNAKNTVYLQMNSLKPDDTAVYYCAADDPGYNQVEYWGQGTQVTVSS | high polyreactivity
QVQLVESGGGLVQAGGSLRLSCAASGSTFFRYAMGWYRQAPGKEREFVAAITSSGGNTYYADSVKGRFTISRDNAKNTVYLQMNSLKPEDTAVYYCADVWYSPYVKYNYWGQGTQVTVSS | low polyreactivity
QVQLVESGGSLVQAGGSLRLSCDASVLTFPVYAMGWYRQAPGKEREFVASISGRGASTYYADSVKGRFTISRDNAKNTVYLQMNSLIPEDTAVYYCNADVWLLSYFPEYDYWGQGNQVTVSS | low polyreactivity
QVQLVESGGGLVQAGGRLRLSCAASGRILYLNAMGWYRQAPGKERELVAAITKSGGSTYYADSVKGRFTISRDNAKNTVYLQMNSLKPEDTAVYYCAAEWVYYDYWQRFLYIDYDYWGQGTHVTVSS | high polyreactivity
QVQLVESAAGLVQAGGSLRLSCAASGRIFGYYTMGWYRQAPGKERELVAAINGRGTSTYYADSVKGRFTISRDNAKYTVYLQMNSLKPEDTAVYYCAAQLYYYGQYKHFDYWGQGTQVTVSS | high polyreactivity
QVQLVESGGGLVQAGGSLRVSCAASGFTFGYYGMGWYRQAPGKERELVAAISWSGGSTYYADSVKGRFTISRDNAKYTVYLQMNSLKPEVTAVYYCNADYAGFYQRRYIEDDYWGQGTQVTVSS | low polyreactivity
